According to patent publication US20140341881A1 (DERMADIS, published 2014):

Legend:
human kallikrein hK1 = human kallikrein hK1 (human, UniProt P06870 25-262); experiment: cell-based or functional assay
[1] = molecular target: prostate specific antigen (PSA, hK3) (human, UniProt P07288 25-261); experiment: cell-based or functional assay
[2] = molecular target: urokinase plasminogen activator (uPA) (UniProt P00749 21-431, limits assumed); experiment: cell-based or functional assay
human kallikrein 2 (hK2) [3] = molecular target: T1, human kallikrein 2 (hK2) (human, UniProt P20151 25-261); experiment: cell-based or functional assay
human kallikrein 2 (hK2) [4] = molecular target: T1, human kallikrein 2 (hK2); experiment: progress curve, pseudo-first order, fluorogenic substrate
Description: (§1) Under these conditions, a fixed amount of enzyme (2 nM) was mixed with different concentrations of inhibitor (0-800 nM) and an excess of substrate (10 μM). Each reaction was made in reaction buffer (50 mM Tris pH 7.5, 150 mM NaCl, 0,05% Triton X-100, 0.01% BSA) at 25° C. for 45 min and the rate of product formation was measured using a FLₓ800 fluorescence 96-well microplate reader (Biotek, USA). In this model, inhibition is considered to be irreversible over the course of reaction and the progress of enzyme activity is expressed by product formation (P), beginning at a rate (vz) and is inhibited over time (t) at a first-order rate (kobs), rate constant that is dependent only on inhibitor concentration.

human kallikrein 2 (hK2) [5] = molecular target: T1, human kallikrein 2 (hK2); experiment: residual enzyme activity against [I]o/[E]o, fluorogenic substrate
Description: (§2) The stoichiometry of inhibition (SI) values were determined for the inhibition of rACTWT and its variants with hK2 and different other enzymes. An initial test was made with a molar excess of rACT (100 fold) over hK2, PSA, hK1, chymotrypsin (Chtr), plasma kallikrein (PK), urokinase (uPA) and human neutrophile elastase (HNE) enzymes. The reaction was carried out for 30 min at 25° C. (90 min at 37° C. for PSA) in reaction buffer (50 mM Tris pH 7.5, 150 mM NaCl, 0,05% Triton X-100, 0.01% BSA) and residual enzyme activity was measured by adding fluorescent substrates (Z-Phe-Arg-AMC for hK1, hK2 and PK, Suc-Ala-Ala-Pro-Phe-AMC for Chtr, Z-Gly-Gly-Arg-AMC for uPA, MeOSuc-Ala-Ala-Pro-Val-AMC for HNE, and CFP-TFRSA-YFP (TFRSA SEQ ID NO:137) for PSA). Activity of enzyme in presence of inhibitors was compared to uninhibited reaction. For reactions where an inhibition was observed, SI was determined by incubating different concentrations of recombinant serpins. Using linear regression analysis of fractional activity (velocity of inhibited enzyme reaction/velocity of uninhibited enzyme reaction) versus the molar ratio of the inhibitor to enzyme ([Iₒ]/[Eₒ]), the stoichiometry of inhibition, corresponding to the abscissa intercept, was obtained.

[6] = molecular target: T2, human plasma kallikrein (PK) (human, UniProt P03952 20-638); experiment: cell-based or functional assay
[7] = molecular target: T2, human plasma kallikrein (PK); experiment: progress curve, pseudo-first order, fluorogenic substrate
Description: as §1

[8] = molecular target: T2, human plasma kallikrein (PK); experiment: residual enzyme activity against [I]o/[E]o, fluorogenic substrate
Description: as §2

T2 sequence (P03952 20-638 limits assumed): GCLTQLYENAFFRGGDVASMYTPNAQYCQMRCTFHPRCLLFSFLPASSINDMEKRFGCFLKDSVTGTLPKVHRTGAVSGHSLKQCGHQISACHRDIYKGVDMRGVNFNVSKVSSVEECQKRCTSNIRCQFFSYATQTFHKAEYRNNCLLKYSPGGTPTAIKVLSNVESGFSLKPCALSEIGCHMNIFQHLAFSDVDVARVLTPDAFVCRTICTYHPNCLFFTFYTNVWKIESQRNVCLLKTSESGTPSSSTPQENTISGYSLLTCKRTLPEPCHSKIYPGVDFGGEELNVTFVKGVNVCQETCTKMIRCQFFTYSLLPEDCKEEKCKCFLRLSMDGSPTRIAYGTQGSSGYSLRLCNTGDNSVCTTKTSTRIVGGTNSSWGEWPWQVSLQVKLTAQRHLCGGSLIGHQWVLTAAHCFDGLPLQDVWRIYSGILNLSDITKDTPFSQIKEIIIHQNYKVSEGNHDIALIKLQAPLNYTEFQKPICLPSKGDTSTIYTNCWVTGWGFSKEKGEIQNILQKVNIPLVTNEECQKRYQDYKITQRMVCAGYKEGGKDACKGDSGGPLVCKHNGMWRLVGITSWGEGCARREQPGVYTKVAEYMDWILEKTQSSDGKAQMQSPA

B1: rACT5.18 (other)
chain: MRGSHHHHHHSRHPNSPLDEENLTQENQDRGTHVDLGLASANVDFAFSLYKQLVLKAPDKNVIFSPLSISTALAFLSLGAHNTTLTEILKGLKFNLTETSEAEIHQSFQHLLRTLNQSSDELQLSMGNAMFVKEQLSLLDRFTEDAKRLYGSEAFATDFQDSAAAKKLINDYVKNGTRGKITDLIKDLDSQTMMVLVNYIFFKAKWEMPFDPQDTHQSRFYLSKKKWVMVPMMSLHHLTIPYFRDEELSCTVVELKYTGNASALFILPDQDKMEEVEAMLLPETLKRWRDSLEFREIGELYLPKFSISRDYNLNDILLQLGIEEAFTSKADLSGITGARNLAVSQVVHKAVLDVFEEGTEASAATAVKITERVSPVETRTIVRFNRPFLMIIVPTDTQNIFFMSKVTNPKQA
notes: recombinant ACT variant, RSL substrate peptide ERVSP; N-terminal His tag, E. coli TG1; also called MD518
B1 gave an INHIBITION % (human kallikrein hK1) of 0%, an INHIBITION % [1] of 0% and an INHIBITION % [2] of 0%. For the same binder, the INHIBITION % (human kallikrein 2 (hK2) [3]) was 73%, the kon (human kallikrein 2 (hK2) [4]) was 595 M⁻¹ s⁻¹ and the “SI (stoichiometry of inhibition)” value (human kallikrein 2 (hK2) [5]) was 139.

B2: rACT6.2 (other)
chain: MRGSHHHHHHSRHPNSPLDEENLTQENQDRGTHVDLGLASANVDFAFSLYKQLVLKAPDKNVIFSPLSISTALAFLSLGAHNTTLTEILKGLKFNLTETSEAEIHQSFQHLLRTLNQSSDELQLSMGNAMFVKEQLSLLDRFTEDAKRLYGSEAFATDFQDSAAAKKLINDYVKNGTRGKITDLIKDLDSQTMMVLVNYIFFKAKWEMPFDPQDTHQSRFYLSKKKWVMVPMMSLHHLTIPYFRDEELSCTVVELKYTGNASALFILPDQDKMEEVEAMLLPETLKRWRDSLEFREIGELYLPKFSISRDYNLNDILLQLGIEEAFTSKADLSGITGARNLAVSQVVHKAVLDVFEEGTEASAATAVKITRRSIDVETRTIVRFNRPFLMIIVPTDTQNIFFMSKVTNPKQA
notes: recombinant ACT variant, RSL substrate peptide RRSID; N-terminal His tag, E. coli TG1; also called MD62; MD 62
B2 gave an INHIBITION % (human kallikrein hK1) of 0%, an INHIBITION % [2] of 0% and an INHIBITION % (human kallikrein 2 (hK2) [3]) of 100%. The INHIBITION % [6] was 100%, the kon (human kallikrein 2 (hK2) [4]) was 6260 M⁻¹ s⁻¹ and the kon [7] was 6220 M⁻¹ s⁻¹. For the same binder, the “SI (stoichiometry of inhibition)” value (human kallikrein 2 (hK2) [5]) was 25 and the “SI (stoichiometry of inhibition)” value [8] was 18.

B3: rACT8.3 (other)
chain: MRGSHHHHHHSRHPNSPLDEENLTQENQDRGTHVDLGLASANVDFAFSLYKQLVLKAPDKNVIFSPLSISTALAFLSLGAHNTTLTEILKGLKFNLTETSEAEIHQSFQHLLRTLNQSSDELQLSMGNAMFVKEQLSLLDRFTEDAKRLYGSEAFATDFQDSAAAKKLINDYVKNGTRGKITDLIKDLDSQTMMVLVNYIFFKAKWEMPFDPQDTHQSRFYLSKKKWVMVPMMSLHHLTIPYFRDEELSCTVVELKYTGNASALFILPDQDKMEEVEAMLLPETLKRWRDSLEFREIGELYLPKFSISRDYNLNDILLQLGIEEAFTSKADLSGITGARNLAVSQVVHKAVLDVFEEGTEASAATAVKIRGRSELVETRTIVRFNRPFLMIIVPTDTQNIFFMSKVTNPKQA
notes: recombinant ACT variant, RSL substrate peptide RGRSE; N-terminal His tag, E. coli TG1; also called MD83; MD 83
Work on B3 yielded an INHIBITION % (human kallikrein hK1) of 0%, an INHIBITION % [1] of 0% and an INHIBITION % [2] of 0%. For the same binder, the INHIBITION % (human kallikrein 2 (hK2) [3]) was 100%, the kon (human kallikrein 2 (hK2) [4]) was 2440 M⁻¹ s⁻¹ and the “SI (stoichiometry of inhibition)” value (human kallikrein 2 (hK2) [5]) was 34.
